Measured values reported in PMC3416963.
Changes are numbered by the printed parent chain. In names and notes the source's numbering stands.

B1: LigI (Sphingobium sp. SYK-6; H178A) (protein)
chain: TNDERILSWNETPSKPRYTPPPGAIDAHCHVFGPMAQFPFSPKAKYLPRDAGPDMLFALRDHLGFARNVIVQASCHGTDNAATLDAIARAQGKARGIAVVDPAIDEAELAALHEGGMRGIRFNFLKRLVDDAPKDKFLEVAGRLPAGWHVVIYFEADILEELRPFMDAIPVPIVIDAMGRPDVRQGPDGADMKAFRRLLDSREDIWFKATCPDRLDPAGPPWDDFARSVAPLVADYADRVIWGTDWPHPNMQDAIPDDGLVVDMIPRIAPTPELQHKMLVTNPMRLYWSEEM
B2: LigI (Sphingobium sp. SYK-6; H178C) (protein)
chain: B1 chain with A177C
B3: LigI (Sphingobium sp. SYK-6; Y47F) (protein)
chain: B1 chain with Y46F, A177H
B4: LigI (Sphingobium sp. SYK-6; Y154F) (protein)
chain: B1 chain with Y153F, A177H
B5: LigI (Sphingobium sp. SYK-6; R122M) (protein)
chain: B1 chain with R121M, A177H
B6: LigI (Sphingobium sp. SYK-6; H31N) (protein)
chain: B1 chain with H30N, A177H
B7: LigI (Sphingobium sp. SYK-6; D246N) (protein)
chain: B1 chain with A177H, D245N
B8: LigI (Sphingobium sp. SYK-6; R128M) (protein)
chain: B1 chain with R127M, A177H
B9: LigI (Sphingobium sp. SYK-6; H29N) (protein)
chain: B1 chain with H28N, A177H

Substrate: O=C(O)c1cc(C(=O)O)oc(=O)c1
Experiment: purified protein
Assay type: biochemical, Sphingobium sp. SYK-6
Conditions: 50 mM BICINE pH 8.25, 30 °C

Row | Protein | Km [µM] | kcat [s⁻¹] | kcat/Km [M⁻¹ s⁻¹]
1 | B1 | 214 ± 44 | 8 ± 0.9 | 37000 ± 4000
2 | B2 | 41 ± 7 | 32 ± 4 | 780000 ± 50000
3 | B3 | 217 ± 41 | 26 ± 2 | 120000 ± 2000
4 | B4 | 238 ± 19 | 8.7 ± 0.3 | 37000 ± 200
5 | B5 | 90 ± 15 | 0.02 ± 0.001 | 200 ± 22
6 | B6 | 89 ± 20 | 3.6 ± 0.3 | 41000 ± 6000
7 | B7 | 66 ± 13 | 0.023 ± 0.001 | 200 ± 34
8 | B8 | 465 ± 104 | 5 ± 0.4 | 11000 ± 7000
9 | B9 | 720 ± 122 | 0.4 ± 0.04 | 500 ± 37
